Experimental data as given in patent publication US20230235068A1.

Target: extracellular domain portion of LEPR protein expressed with a C-terminal human Fc tag (human)
Experiment: competition ELISA, 10 nM hLEPR-hFc binding to coated hLeptin; soluble hLeptin as competitor

Sequence of extracellular domain portion of LEPR protein expressed with a C-terminal human Fc tag (human) (chain, as listed by the source limits assumed): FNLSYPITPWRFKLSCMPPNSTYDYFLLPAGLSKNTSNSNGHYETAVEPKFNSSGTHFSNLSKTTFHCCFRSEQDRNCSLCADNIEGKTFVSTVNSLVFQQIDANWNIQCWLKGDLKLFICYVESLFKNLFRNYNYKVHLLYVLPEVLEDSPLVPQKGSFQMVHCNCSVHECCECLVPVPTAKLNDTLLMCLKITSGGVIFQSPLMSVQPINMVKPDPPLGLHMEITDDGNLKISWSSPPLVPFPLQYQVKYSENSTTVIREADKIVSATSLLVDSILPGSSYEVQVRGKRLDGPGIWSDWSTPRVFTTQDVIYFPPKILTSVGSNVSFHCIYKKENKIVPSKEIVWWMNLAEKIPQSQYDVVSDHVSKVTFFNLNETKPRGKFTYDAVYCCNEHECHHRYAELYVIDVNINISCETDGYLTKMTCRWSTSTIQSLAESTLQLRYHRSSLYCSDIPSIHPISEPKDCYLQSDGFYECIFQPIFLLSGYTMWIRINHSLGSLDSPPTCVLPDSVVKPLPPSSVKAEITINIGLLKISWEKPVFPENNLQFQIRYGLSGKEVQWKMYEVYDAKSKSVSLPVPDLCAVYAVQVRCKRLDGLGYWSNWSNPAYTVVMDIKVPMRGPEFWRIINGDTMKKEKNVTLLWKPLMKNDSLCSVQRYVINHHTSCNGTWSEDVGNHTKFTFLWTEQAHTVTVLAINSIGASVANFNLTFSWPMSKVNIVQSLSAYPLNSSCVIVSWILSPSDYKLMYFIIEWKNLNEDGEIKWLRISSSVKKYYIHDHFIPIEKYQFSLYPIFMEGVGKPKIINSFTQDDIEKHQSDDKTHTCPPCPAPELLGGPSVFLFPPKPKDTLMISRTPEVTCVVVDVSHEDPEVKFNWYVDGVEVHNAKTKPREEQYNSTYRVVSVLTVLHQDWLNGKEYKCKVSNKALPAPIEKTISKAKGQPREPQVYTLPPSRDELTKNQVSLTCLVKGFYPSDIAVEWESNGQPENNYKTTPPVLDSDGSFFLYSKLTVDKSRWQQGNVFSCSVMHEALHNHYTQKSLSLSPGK

**Q.** For “human Leptin (from UniProt P41159 22-167) (ligand)”, which % blockade at 500 nM is on record?
**A.** Its % blockade at 500 nM is 99%.
